The values that follow come from PMC10470551 (mBio, 2023).

The target of data set [1] is T1, CsTAL (Clostridium scatologenes, UniProt A0A0E3M5J5).
T1 construct: gene CSCA_1088; recombinant, pET-28a(+), N-terminal His6 tag, E. coli BL21(DE3), Ni-NTA
T1 sequence (A0A0E3M5J5 1-281): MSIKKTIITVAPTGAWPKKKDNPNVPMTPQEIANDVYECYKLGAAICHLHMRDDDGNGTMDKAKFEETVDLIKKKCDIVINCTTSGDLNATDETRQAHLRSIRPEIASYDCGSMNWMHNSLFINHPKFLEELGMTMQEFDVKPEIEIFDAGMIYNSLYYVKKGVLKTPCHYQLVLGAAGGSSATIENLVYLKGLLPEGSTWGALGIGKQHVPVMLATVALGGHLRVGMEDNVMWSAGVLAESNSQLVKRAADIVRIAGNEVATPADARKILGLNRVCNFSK
Nature of the data set: coupled assays (PfHBDH or CaHAD), NADH at […] nm. The format is biochemical. To be noted: 50 mM Tris-HCl pH 7.5, room temperature.

Substrate in data set [2]: Oc1cc(O)cc(O)c1
Nature of the data set: purified protein. To be noted: co-substrate NADPH, 50 mM Tris-HCl pH 7.5, room temperature.

Substrate in data set [3]: NC(=O)C1=CN([C@@H]2O[C@H](COP(=O)(O)OP(=O)(O)OC[C@H]3O[C@@H](n4cnc5c(N)ncnc54)[C@H](OP(=O)(O)O)[C@@H]3O)[C@@H](O)[C@H]2O)C=CC1
Nature of the data set: purified protein. Type of data set: biochemical, Clostridium scatologenes. Particulars: 50 mM Tris-HCl pH 7.5, room temperature.

Substrate in data set [4]: NC(=O)C1=CN([C@@H]2O[C@H](COP(=O)(O)OP(=O)(O)OC[C@H]3O[C@@H](n4cnc5c(N)ncnc54)[C@H](O)[C@@H]3O)[C@@H](O)[C@H]2O)C=CC1
Nature of the data set: purified protein. Type of data set: biochemical, Clostridium scatologenes. To be noted: 2.0 mM triacetate (saturating), 50 mM Tris-HCl pH 7.5, room temperature.

Substrate in data set [5]: CC(=O)CC(=O)CC(=O)O
In words: purified protein. Particulars: 1.0 mM NADPH, 50 mM Tris-HCl pH 7.5, room temperature. Type of data set: biochemical, Clostridium scatologenes.

Substrate in data set [6]: CC(=O)CC(=O)O
In words: purified protein. The format is biochemical, Clostridium scatologenes. Particulars: 1.0 mM NADPH, 50 mM Tris-HCl pH 7.5, room temperature.

Substrate in data set [7]: O=C1CC(=O)CC(O)C1
Nature of the data set: purified protein. The format is biochemical, Clostridium scatologenes. To be noted: 2 mM Mn2+, 50 mM Tris-HCl pH 7.5, room temperature.

Consider `CC(=O)CC(=O)CC(=O)O` [TAA, 3,5-dioxohexanoate], for which the “coupled assays (PfHBDH or CaHAD), NADH at 340 nm” value in data set [1] (co-substrate acetyl-CoA) is “Incubation of CsTAL with triacetate and acetyl-CoA resulted in the formation of acetoacetate and acetoacetyl-CoA”.
In the case of `CC(=O)SCCNC(=O)CCNC(=O)[C@H](O)C(C)(C)COP(=O)(O)OP(=O)(O)OC[C@H]1O[C@@H](n2cnc3c(N)ncnc32)[C@H](O)[C@@H]1OP(=O)(O)O` [acetyl-CoA], the “coupled assays (PfHBDH or CaHAD), NADH at 340 nm” value in data set [1] (co-substrate triacetate) is “Incubation of CsTAL with triacetate and acetyl-CoA resulted in the formation of acetoacetate and acetoacetyl-CoA”.

B1: CsPGR (Clostridium scatologenes) (protein)
chain: MVDKKLINNLFDVKGKVALLTGATGALGKAVAFGYGQAGMKVFITGRSDDKCKALCNELKVDGIECGYSIGDPAIEADVIKIVDDCVAKFGEINVLLTAAGYNHPQPIVEQDLTEWQKIMNSDVQGTWLFCKYVGQKMIDQGKGGKVILVSSARSKMGMAGYTGYCTAKAGIDLMAQSLACEWTAKYGINVNTINPTVFRSDLTEWMFDPESAVYKNFLRRLPIGRLGEPEDFVGPCIFLASSASDFMTGANVATEGGYWAN
notes: recombinant, pET-28a(+), N-terminal His6 tag, E. coli BL21(DE3), Ni-NTA
Regarding B1, in data set [2], the Km (as a rule, the concentration of substrate that gives half-maximal velocity) amounted to 300 µM and the turnover number (kcat) – broadly, the maximal rate divided by the concentration of active sites – was 22.4 to 25.3 s⁻¹. In addition, in data set [3] (co-substrate phloroglucinol), the Michaelis constant (Km) was found to be 210 µM and the turnover number (kcat) is 22.4 to 25.3 s⁻¹.

B2: CsTfD (Clostridium scatologenes) (protein)
chain: MGSIIKNITVFGPGMMGSGIAQVFAGCKDSHVTVFIREKFEYECIDKIKGNLQVMKEKGIVTDADIAELFSRITLTEDMKAATKDADFIIECIPENMELKQNLFKNLEDLCREDTIFATNTSVMSITEISEKSKLKTRIVGTHFWNPPYLIPLVEVVKSDYTSEEVMNKTMELLKTVKKHPIRVNKDVPGFVANRLQHALWREAISIVENGIADAKTVDEAVKYSFGLRLPHLGPIENADMVGTDLTLSIHDYILKHLDKSIEAAPIVRKMVEAGELGFKSGKGFQEWTPEQAKASNESLREYLLKVLYGK
notes: recombinant, codon-optimized synthetic gene, pET-28a(+), N-terminal His6 tag, E. coli BL21(DE3), Ni-NTA
In the case of B2, the Michaelis-Menten constant (Km) was determined as 130 µM in data set [4], 1700 µM in data set [3] (2.0 mM triacetate (saturating)), 550 µM in data set [5] and 3690 µM in data set [6].

B3: CsDPGC (Clostridium scatologenes) (protein)
chain: MGKKVYVDLTHPFSADIPRWPYFVKPVIDSMHSLAKGGVLTQRIDCVQHTGTHCDAPRHVMETEFNGKRARYTHEMPVDAYMGDAVCLEIKAGRWELITAAHLEDACKRANIKPEELEGMVVCLNTGMHRKFDDSKEYYHYSCGTGVEAGKWFVKYKVKCVAMDMQALDHPLHTAMGNNGATRLNLLGASGKPITEEYKEQFGEEAYAEFDKDEYIRIHGKEAYDAKFGDLEEIGCWGTWEPCHKEMLGHGIVGVENLGGDLDKVSGKRFRFLCLPIRWYMGDGSMVRCVAEIDEDNVNKDVADRVYTYGGF
notes: recombinant, pET-28a(+), N-terminal His6 tag, E. coli BL21(DE3), Ni-NTA; mostly apo as purified, Mn2+ added
Consider B3, for which, in data set [7], the Km was determined as 190 ± 40 µM and the catalytic constant (kcat) came to 1.04 ± 0.10 s⁻¹.
